Patent US20260217843A1 (APOGEE THERAPEUTICS, published 2026)
Numbering of substitutions follows the chain as printed.

B1: anti-hOX40L antibody clone 118 (antibody, human IgG1, kappa, L234A L235A, V domains shown)
VH: EVQVVESGGGLIQPGGSLRISCAASGFPVSSNYMSWVRQAPGKGLDWVSIIYSRDSTHYADSVKGRFTMSRDNSKNTVYLQMNSLRAEDTAVYYCAGTLTYYYGAGSDYWGQGTLVTVSS
VL: DIQMTQSPSSLSASVGDRVTITCRASQGIRNDLGWYQQKPGKAPKRLIYAASSLQSGVPSRFSGSGSGTEFTLTISSLQPEDFATYYCLQHNSYPWSFGQGTKVEIKR
B2: anti-hOX40L antibody clone 127 (antibody, human IgG1, kappa, L234A L235A, V domains shown)
VH: EVQLVESGGGFVKPGGSLRLSCAASGFTFSNAWMSWVRQAPGKGLEWVGRIKSNSYGGTTDYAAPAIGRFTISRDGSKSTLYLQMNSLKTEDTAVYYCTTDHPKFGFDFWGQGTLVTVSS
VL: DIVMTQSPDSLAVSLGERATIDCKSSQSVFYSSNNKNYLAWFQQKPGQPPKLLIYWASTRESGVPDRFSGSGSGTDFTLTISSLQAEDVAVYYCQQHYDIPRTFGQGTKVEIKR
B3: anti-hOX40L antibody clone 328 (antibody, human IgG1, kappa, L234A L235A)
heavy: QVQLQESGPGLVKPSQTLSLTCTVSGGSISSGGYYWSWIRQYPGKGLEWIGHIYYSGSTKYNPSLKSRLTISVDTSKNQFSLKLSSVTAADTAVYYCARDNWGSGWYYMDVWGKGTTVTVSSASTKGPSVFPLAPSSKSTSGGTAALGCLVKDYFPEPVTVSWNSGALTSGVHTFPAVLQSSGLYSLSSVVTVPSSSLGTQTYICNVNHKPSNTKVDKKVEPKSCDKTHTCPPCPAPEAAGGPSVFLFPPKPKDTLYITREPEVTCVVVDVSHEDPEVKFNWYVDGVEVHNAKTKPREEQYNSTYRVVSVLTVLHQDWLNGKEYKCKVSNKALPAPIEKTISKAKGQPREPQVYTLPPSRDELTKNQVSLTCLVKGFYPSDIAVEWESNGQPENNYKTTPPVLDSDGSFFLYSKLTVDKSRWQQGNVFSCSVMHEALHNHYTQKSLSLSPG
light: EIVLTQSPATLSLSPGERATLSCRASQSVSNYFAWYRQKPGQAPRLLIYDASNRATGIPARFSGSGSGTDFTLTISSLEPEDFAVYYCQHRSNWPLTFGGGTKVEIKRTVAAPSVFIFPPSDEQLKSGTASVVCLLNNFYPREAKVQWKVDNALQSGNSQESVTEQDSKDSTYSLSSTLTLSKADYEKHKVYACEVTHQGLSSPVTKSFNRGEC
B4: anti-hOX40L antibody clone 122 (antibody, human IgG1, kappa, L234A L235A, V domains shown)
VH: EVQLVESGGGLVQPGGSLRLSCAASGFTFSNYWMHWVRQAPGKGLVWVSRINSDGISTRYADSVKGRFTISRDNAKNTLYLQMKSLRAEDTAVYYCVRDFQLELPDYWGQGTLVTVSS
VL: DIQMTQSPSSLSASVGDRVTITCRASQGIRDDLAWYQQKAGKAPKRLIFAASSLQSGVPSRFSGSGSGTEFTLTISGLQPEDFANYYCLQHKSNPFTFGQGTKLEIKR
B5: anti-hOX40L antibody clone 128 (antibody, human IgG1, kappa, L234A L235A, V domains shown)
VH: EVQLVESGGGLVTPGGSLRISCAASGFTFNNAWMTWVRQAPGKGLEWVGRIKSISYGGTTDSAAPVKGRFTISRDDSENTLYLQMSSLKTEDTAVYYCSTGSVWKYGGSLDFWGQGTLVTVSS
VL: DIQMTQSPSSLSASVGDRVTFTCRASQGISRFLNWYQQKPGKAPKLLIYAASTLQNGVPSRFSGSGSGTDFTLTISSLQPEDFATYFCQQTYSTPLTFGGGTKVEIYR
B6: anti-hOX40L antibody clone 130 (antibody, human IgG1, kappa, L234A L235A, V domains shown)
VH: EVQLVESGGGLVKPGGSLRLSCAASGFTFSYAWMSWVRQAPGRGLEWVGRIKSETDGGTTDYAAPVKGRFTISRDHSENTLFLQMNSLKTEDTAVYYCTTGSSWNVYFFDFWGQGTLVTVSS
VL: DIQMTQSPSSLSASVGDSVTITCRASQSISNYLNWYHQKPGKAPKLLIYAAYRLQTGVPSRFSGSGSGTDFTLTISSLQPEDFATYYCQQSYSSPLTFGGGTKVEIKR
B7: positive control based on the sequences of the anti-hOX40L antibody amlitelimab (antibody, IgG4, V domains shown)
VH: EVQLVESGGGLVQPGGSLRLSCAASGFTFSNYAMNWVRQAPGKGLEWVSTISGSGGATRYADSVKGRFTISRDNSRNTVYLQMNSLRVEDTAVFYCTKDRLIMATVRGPYYYGMDVWGQGTTVTVSS
VL: DIQMTQSPSSLSASVGDRVTITCRASQSISSYLNWYQQKPGKAPNLLIYAASSLQSGVPSRFSGSGSETDFTLTISSLQPEDFATYYCQQSHSVSFTFGPGTKVDIK
notes: also called Pos; Ctrl

Experiments:
[1] = target: T1, hOX40L added as soluble protein in cell assays (human, UniProt P23510 51-183, limits assumed); test: cell-based or functional assay
T1 sequence: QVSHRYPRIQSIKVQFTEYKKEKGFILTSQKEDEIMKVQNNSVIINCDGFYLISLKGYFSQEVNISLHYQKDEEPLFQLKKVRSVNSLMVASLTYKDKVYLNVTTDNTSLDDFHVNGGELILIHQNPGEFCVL

[2] = target: T2, Recombinant Human OX40L Protein, His Tag (Acro Cat. IL3-H52H4) (human, UniProt P23510 51-183); test: SPR (Biacore 8K), antibody captured, human OX40L injected, 1:1 fit
T2 construct: Bought His-tagged protein; also called hOX40L
T2 sequence: T1 sequence
Protocol: (§1) Samples were injected in a multi-cycle manner over freshly captured mAb, by regenerating the capture surfaces with injection of glycine pH 1.5 for 30 sec at a flow rate of 30 μL/min. The data was processed and analyzed with Biacore Insight Evaluation Software Version 2.0.15.12933 (GE Healthcare) as follows. […] The responses from the two buffer blank injections were then subtracted from the reference subtracted data (2-1) to yield double-referenced data, which were fit to an 1:1 binding model to determine the apparent association (ka) and dissociation rate constants (kd). Their ratio provided the apparent equilibrium dissociation constant or affinity constant (KD=kd/ka).

[3] = target: T3, Recombinant Cynomolgus OX40L Protein, His Tag (SINO BIOLOGICAL, Cat. 11057-C07H) (cynomolgus, UniProt G7NVH7 51-183); test: SPR (Biacore 8K), antibody captured, cynomolgus OX40L injected, 1:1 fit
T3 construct: Bought protein
T3 sequence: T1 sequence with R5Q, K23E
Protocol: as §1

[4] = target: human FcRn (human, UniProt P55899 24-297; P61769 21-119); test: SPR (Biacore 8K+), antibody captured by anti-human kappa, human FcRn injected, pH 5.8; pH 5.8
Chain of human FcRn (P55899 24-297 limits assumed, form in doubt, chain 1 of 2): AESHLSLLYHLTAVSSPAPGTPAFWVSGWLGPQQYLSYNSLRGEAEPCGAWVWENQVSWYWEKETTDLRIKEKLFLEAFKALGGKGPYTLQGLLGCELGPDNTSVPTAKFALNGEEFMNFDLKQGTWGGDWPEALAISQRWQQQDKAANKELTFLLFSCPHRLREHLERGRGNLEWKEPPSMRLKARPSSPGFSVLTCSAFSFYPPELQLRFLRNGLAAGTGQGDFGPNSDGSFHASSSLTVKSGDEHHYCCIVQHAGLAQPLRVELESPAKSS
Chain of human FcRn (P61769 21-119 limits assumed, form in doubt, chain 2 of 2): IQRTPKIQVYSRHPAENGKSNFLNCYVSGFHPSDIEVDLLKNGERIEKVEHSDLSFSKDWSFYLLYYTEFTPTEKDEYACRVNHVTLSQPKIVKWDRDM
Protocol: (§2) Briefly, a CM5 Series S sensor chip functionalized with anti-human kappa antibody was used to capture antibodies at 5 μg/mL. […] The chip was regenerated with 10 mM glycine pH 1.5 and 10 mM NaOH between runs.

[5] = target: T4, C1q; test: SPR (Biacore 8K+), antibody captured by anti-human IgG Fc, C1q injected at 25 nM, mean response
T4 construct: also called Clq
T4 sequence (P02745 23-245, chain 1 of 3): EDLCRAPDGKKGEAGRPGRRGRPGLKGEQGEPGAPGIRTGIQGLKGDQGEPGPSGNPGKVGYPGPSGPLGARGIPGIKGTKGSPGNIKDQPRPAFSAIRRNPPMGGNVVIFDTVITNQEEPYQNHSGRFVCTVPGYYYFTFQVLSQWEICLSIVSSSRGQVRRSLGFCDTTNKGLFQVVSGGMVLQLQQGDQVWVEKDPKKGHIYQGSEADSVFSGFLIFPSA
T4 sequence (P02746 28-253, chain 2 of 3, further chain): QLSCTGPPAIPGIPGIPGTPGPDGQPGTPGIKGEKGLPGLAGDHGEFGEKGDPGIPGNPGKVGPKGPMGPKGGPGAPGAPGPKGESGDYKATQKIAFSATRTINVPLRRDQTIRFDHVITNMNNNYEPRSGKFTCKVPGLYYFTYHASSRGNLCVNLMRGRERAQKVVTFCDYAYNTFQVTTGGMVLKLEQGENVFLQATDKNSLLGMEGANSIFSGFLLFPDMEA
T4 sequence (P02747 29-245, chain 3 of 3, further chain): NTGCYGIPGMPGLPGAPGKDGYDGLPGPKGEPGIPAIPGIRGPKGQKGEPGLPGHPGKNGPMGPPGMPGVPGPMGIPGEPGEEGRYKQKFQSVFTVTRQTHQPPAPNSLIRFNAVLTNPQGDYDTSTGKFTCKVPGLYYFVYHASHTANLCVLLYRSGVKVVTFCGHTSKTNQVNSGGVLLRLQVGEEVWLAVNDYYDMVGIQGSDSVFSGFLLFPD
Protocol: Briefly, a CM5 Series S sensor chip functionalized with anti-human IgG Fc antibody was used to capture antibodies at 5 μg/mL. […] The chip was regenerated with 10 mM glycine pH 1.5 and 10 mM NaOH between runs.

[6] = target: cynomolgus FcRn (cynomolgus, UniProt Q8SPV9 24-297; Q8SPW0 21-119); test: SPR (Biacore 8K+), antibody captured by anti-human kappa, cynomolgus FcRn injected, pH 5.8; pH 5.8
Chain of cynomolgus FcRn (Q8SPV9 24-297 limits assumed, chain 1 of 2): as the sequence (P55899 24-297 limits assumed, form in doubt, chain 1 of 2) above, with N39D, E44Q, G99S, S189G, S190N, L217M, S269T counted along it
Chain of cynomolgus FcRn (Q8SPW0 21-119 limits assumed, chain 2 of 2): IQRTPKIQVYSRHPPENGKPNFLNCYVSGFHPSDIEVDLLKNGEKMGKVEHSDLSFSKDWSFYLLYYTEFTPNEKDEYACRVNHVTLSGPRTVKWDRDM
Protocol: as §2

[7] = target: T5, biotinylated hOX40L (human, UniProt P23510 51-183, limits assumed, biotinylated (sites not given)); test: blocking ELISA: biotinylated hOX40L preincubated with titrated antibody, added to coated hOX40-Fc, Extravidin-HRP
T5 construct: construct not described
T5 sequence: T1 sequence

[8] = target: T6, hOX40L on hOX40L-expressing CHO cells (human, UniProt P23510 1-183); test: flow cytometry on hOX40L-expressing CHO cells, gMFI, nonlinear regression
T6 construct: also called cell surface OX40L
T6 sequence: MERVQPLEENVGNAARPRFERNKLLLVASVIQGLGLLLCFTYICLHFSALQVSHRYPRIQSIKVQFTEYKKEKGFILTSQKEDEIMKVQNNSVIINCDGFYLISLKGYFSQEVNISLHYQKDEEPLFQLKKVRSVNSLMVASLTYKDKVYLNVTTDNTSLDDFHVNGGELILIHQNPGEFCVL
Protocol: Nonlinear regression was performed on geometric mean fluorescence intensity (gMFI) values to determine EC50 values (FIG. 1, TABLE 8).

Binder	IC50, luminescence (RLU), hOX40 reporter cells with 50 ng/mL hOX40L [1] [nM]	Kd [2] [nM]	koff [2] [s⁻¹]	kon [2] [M⁻¹ s⁻¹]	Kd [3] [nM]	koff [3] [s⁻¹]	kon [3] [M⁻¹ s⁻¹]	Kd [4] [nM]	koff [4] [s⁻¹]	kon [4] [M⁻¹ s⁻¹]	RU at 25 nM C1q [5] [RU]	Kd [6] [nM]	koff [6] [s⁻¹]	kon [6] [M⁻¹ s⁻¹]	IC50 [7] [nM]	EC50 [8] [nM]
B1	0.912	0.182	2.82e-05	155000	–	–	–	–	–	–	–	–	–	–	–	–
B2	1.72	1.11	0.00021	189000	–	–	–	–	–	–	–	–	–	–	–	–
B3	1.9	0.136	0.000271	2e+06	0.0316	0.000152	4.8e+06	137	0.046	336000	0.2	116	0.0462	399000	5.99	–
B4	–	< 0.00662	< 1e-06	151000	–	–	–	–	–	–	–	–	–	–	1.57	–
B5	–	< 0.00893	< 1e-06	112000	–	–	–	–	–	–	–	–	–	–	7.52	–
B6	–	0.0873	1.14e-05	131000	–	–	–	–	–	–	–	–	–	–	13	–
B7	–	–	–	–	0.0455	0.000119	2.62e+06	–	–	–	–	–	–	–	0.62	3.49
